From patent US20160264649A1 (published 2016)

How the values were obtained:
Experiment in all cases: cell-based or functional assay
HIV-1 JR-CSF Env (gp160) = HIV-1 JR-CSF Env (gp160) (HIV-1 isolate JR-CSF, UniProt P20871 32-848)
HIV-1 NL43 Env = HIV-1 NL43 Env (HIV-1 strain NL43)
HIV-1 94UG103 Env = HIV-1 94UG103 Env (HIV-1 strain 94UG103)
HIV-1 SF162 Env [1] = target: T1, HIV-1 SF162 Env (HIV-1 strain SF162, UniProt P19550 32-847)
HIV-1 IAVI_C22 Env = HIV-1 IAVI_C22 Env (HIV-1 strain IAVI C22)
HIV-1 93IN905 Env = HIV-1 93IN905 Env (HIV-1 strain 93IN905)
aMLV Env = aMLV Env (aMLV)
HIV-1 92TH021 Env = HIV-1 92TH021 Env (HIV-1 strain 92TH021)
HIV-1 92BR020 Env = HIV-1 92BR020 Env (HIV-1 strain 92BR020)
HIV-1 SF162 Env [2] = target: T1, HIV-1 SF162 Env; remark: listed apart in the source

Sequence of HIV-1 JR-CSF Env (gp160) (P20871 32-848): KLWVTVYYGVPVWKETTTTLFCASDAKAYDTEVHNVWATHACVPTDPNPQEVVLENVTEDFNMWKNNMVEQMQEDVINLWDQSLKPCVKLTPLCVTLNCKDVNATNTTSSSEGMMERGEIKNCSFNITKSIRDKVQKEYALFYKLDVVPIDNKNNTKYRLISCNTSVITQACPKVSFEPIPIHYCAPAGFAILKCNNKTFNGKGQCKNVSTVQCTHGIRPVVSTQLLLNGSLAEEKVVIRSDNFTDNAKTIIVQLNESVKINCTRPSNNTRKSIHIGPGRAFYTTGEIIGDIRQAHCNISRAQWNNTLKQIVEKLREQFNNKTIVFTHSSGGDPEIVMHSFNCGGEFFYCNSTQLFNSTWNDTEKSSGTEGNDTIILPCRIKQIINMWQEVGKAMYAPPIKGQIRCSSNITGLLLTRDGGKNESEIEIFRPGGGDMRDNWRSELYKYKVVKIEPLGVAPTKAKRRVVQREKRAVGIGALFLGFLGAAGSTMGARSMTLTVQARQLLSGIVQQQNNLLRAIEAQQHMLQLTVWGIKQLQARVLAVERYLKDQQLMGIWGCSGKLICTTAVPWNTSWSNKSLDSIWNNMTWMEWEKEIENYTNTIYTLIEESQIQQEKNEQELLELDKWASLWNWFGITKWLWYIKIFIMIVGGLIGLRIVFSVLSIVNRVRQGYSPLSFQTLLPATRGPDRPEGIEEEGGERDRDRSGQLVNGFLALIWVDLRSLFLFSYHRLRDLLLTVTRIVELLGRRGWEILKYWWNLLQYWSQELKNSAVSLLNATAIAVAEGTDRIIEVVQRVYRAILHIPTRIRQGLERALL

Row | Binder | IC50 neutralization, 1 hour virus/Ab incubation (HIV-1 JR-CSF Env (gp160)) | IC50 neutralization, 18 hour virus/Ab incubation (HIV-1 JR-CSF Env (gp160)) | IC50 neutralization, 1 hour virus/Ab incubation (HIV-1 NL43 Env) | IC50 neutralization, 18 hour virus/Ab incubation (HIV-1 NL43 Env) | IC50 neutralization, 1 hour virus/Ab incubation (HIV-1 94UG103 Env) | IC50 neutralization, 18 hour virus/Ab incubation (HIV-1 94UG103 Env) | IC50 neutralization, 1 hour virus/Ab incubation (HIV-1 SF162 Env [1]) | IC50 neutralization, 18 hour virus/Ab incubation (HIV-1 SF162 Env [1]) | IC50 neutralization, 1 hour virus/Ab incubation (HIV-1 IAVI_C22 Env) | IC50 neutralization, 18 hour virus/Ab incubation (HIV-1 IAVI_C22 Env) | IC50 neutralization, 1 hour virus/Ab incubation (HIV-1 93IN905 Env) | IC50 neutralization, 18 hour virus/Ab incubation (HIV-1 93IN905 Env) | IC50 neutralization, 1 hour virus/Ab incubation (aMLV Env) | IC50 neutralization, 18 hour virus/Ab incubation (aMLV Env) | IC50 neutralization, 1 hour virus/Ab incubation (HIV-1 92TH021 Env) | IC50 neutralization, 18 hour virus/Ab incubation (HIV-1 92TH021 Env) | IC50 neutralization, 1 hour virus/Ab incubation (HIV-1 92BR020 Env) | IC50 neutralization, 18 hour virus/Ab incubation (HIV-1 92BR020 Env) | Neutralization Index SF162 (clonal H and L transfectant) (HIV-1 SF162 Env [2])
1 | 1456_P20 (PG20) (antibody, human IgG1, kappa, V domains shown) VH: QVRLVQSGPEVKKPGSSVTVSCQASGGTFSSYAFTWVRQAPGQGLEWLGMVTPIFGEAKYSQRFEGRVTITADESTSTTSIELRGLTSEDTAIYYCARDRRAVPIATDNWLDPWGQGTLVTVSS VL: DIQLTQSPSSLSASVGDRVSITCRASQTINNYLNWYQQTPGKAPKLLIYGASNLQNGVPSRFSGSGSGTDFTLTISSLQPEDFATYYCQQSFSTPRTFGQGTRLDIKR | > 50 µg/mL | > 50 µg/mL | 0.2 µg/mL | 0.05 µg/mL | > 50 µg/mL | > 50 µg/mL | 0.195 µg/mL | 0.0661 µg/mL | > 50 µg/mL | > 50 µg/mL | > 50 µg/mL | 3.84 µg/mL | > 50 µg/mL | > 50 µg/mL | > 50 µg/mL | > 50 µg/mL | > 50 µg/mL | > 50 µg/mL | –
2 | 1460_G14 (PGG14) (antibody, human IgG1, kappa, V domains shown) VH: QVLLVQSGTEVKKPGSSVKVSCQASGGAFSSYAFSWVRQAPGQGLEWMGMITPVFGETKYAPRFQGRLTLTAEESLSTTYMELRSLTSDDTAFYYCTRDRRVVPMATDNWLDPWGQGTLVTVSS VL: DIQLTQSPSSLSASVGDRVTVTCRASQTIHTYLNWYQQIPGKAPKLLIYGASTLQSGVPSRFSGSGSGTDFTLTINSLQPEDFATYYCQQSYSTPRTFGQGTRLDIKR | – | – | 0.17 µg/mL | 0.05 µg/mL | > 50 µg/mL | > 50 µg/mL | – | – | > 50 µg/mL | > 50 µg/mL | > 50 µg/mL | 3.17 µg/mL | > 50 µg/mL | > 50 µg/mL | > 50 µg/mL | > 50 µg/mL | > 50 µg/mL | > 50 µg/mL | 39.4
3 | 1495_C14 (PGC14) (antibody, human IgG1, lambda, V domains shown) VH: DGHLVQSGVEVKKTGATVKISCKVSGYSFIDYYLHWVQRAPGKGLEWVGLIDPENGEARYAEKFQGRVTIIADTSIDTGYMEMRSLKSEDTAVYFCAAGAVGADSGSWFDPWGQGTLVTVSS VL: SYELTQPPSVSVSPGQTASITCSGSKLGDKYVSWYQLRPGQSPILVMYENDRRPSGIPERFSGSNSGDTATLTISGTQALDEADFYCQAWETTTTTFVFFGGGTQLTVLG | > 50 µg/mL | > 50 µg/mL | 0.35 µg/mL | 0.15 µg/mL | > 50 µg/mL | > 50 µg/mL | 0.0069 µg/mL | < 0.0025 µg/mL | > 50 µg/mL | 13.4 µg/mL | > 50 µg/mL | 0.146 µg/mL | > 50 µg/mL | > 50 µg/mL | > 50 µg/mL | > 50 µg/mL | 1.17 µg/mL | 0.244 µg/mL | –
4 | 1496_C09 (PG9) (TCN-109) (antibody, V domains shown) VH: QRLVESGGGVVQPGSSLRLSCAASGFDFSRQGMHWVRQAPGQGLEWVAFIKYDGSEKYHADSVWGRLSISRDNSKDTLYLQMNSLRVEDTATYFCVREAGGPDYRNGYNYYDFYDGYYNYHYMDVWGKGTTVTVSS VL: QSALTQPASVSGSPGQSITISCNGTSNDVGGYESVSWYQQHPGKAPKVVIYDVSKRPSGVSNRFSGSKSGNTASLTISGLQAEDEGDYYCKSLTSTRRRVFGTGTKLTVLG | – | – | 0.294 µg/mL | 38 µg/mL | 0.334 µg/mL | 0.0942 µg/mL | > 50 µg/mL | > 50 µg/mL | 24.9 µg/mL | 2.11 µg/mL | 0.144 µg/mL | 0.0619 µg/mL | > 50 µg/mL | > 50 µg/mL | 0.0612 µg/mL | 0.0571 µg/mL | > 50 µg/mL | > 50 µg/mL | –
5 | 1443_C16 (PG16) (TCN-116) (antibody, V domains shown) VH: QEQLVESGGGVVQPGGSLRLSCLASGFTFHKYGMHWVRQAPGKGLEWVALISDDGMRKYHSDSMWGRVTISRDNSKNTLYLQFSSLKVEDTAMFFCAREAGGPIWHDDVKYYDFNDGYYNYHYMDVWGKGTTVTVSS VL: QSALTQPASVSGSPGQTITISCNGTSSDVGGFDSVSWYQQSPGKAPKVMVFDVSHRPSGISNRFSGSKSGNTASLTISGLHIEDEGDYFCSSLTDRSHRIFGGGTKVTVLG | < 0.0025 µg/mL | < 0.0025 µg/mL | < 0.0025 µg/mL | 4.99 µg/mL | 0.0211 µg/mL | 0.0085 µg/mL | > 50 µg/mL | > 50 µg/mL | 0.114 µg/mL | 0.106 µg/mL | 0.33 µg/mL | 0.255 µg/mL | > 50 µg/mL | > 50 µg/mL | 0.136 µg/mL | 0.0435 µg/mL | > 50 µg/mL | > 50 µg/mL | 0.67
6 | 1496 C09 γ3 017 + 1496 C09 λ3 024 (antibody, V domains shown) VH: QRLVESGGGVVQPGSSLRLSCAASGFDFSRQGMHWVRQAPGQGLEWVAFIKYDGSEKYHADSVWGRLSISRDNSKDTLYLQMNSLRVEDTATYFCVREAGGPDYRNGYNYYDFYDGYYNYHYMDVWGKGTTVTVSS VL: QSALTQPASVSGSPGQTITISCNGTSSDVGGFDSVSWYQQSPGKAPKVMVFDVSHRPSGISNRFSGSKSGNTASLTISGLHIEDEGDYFCSSLTDRSHRIFGGGTKVTVLG | – | – | – | – | – | – | – | – | – | – | – | – | – | – | – | – | – | – | 0.94
